Kd data for 5 substances are collected here from publication PMC4538832, “Structures of the T. brucei kRNA editing factor MRB1590 reveal unique RNA-binding pore motif contained within an ABC-ATPase fold” (Nucleic Acids Research, 2015).

In this series the test system is T1, MRB1590(10-668) (Trypanosoma brucei), UPI00067E648B.
T1 sequence: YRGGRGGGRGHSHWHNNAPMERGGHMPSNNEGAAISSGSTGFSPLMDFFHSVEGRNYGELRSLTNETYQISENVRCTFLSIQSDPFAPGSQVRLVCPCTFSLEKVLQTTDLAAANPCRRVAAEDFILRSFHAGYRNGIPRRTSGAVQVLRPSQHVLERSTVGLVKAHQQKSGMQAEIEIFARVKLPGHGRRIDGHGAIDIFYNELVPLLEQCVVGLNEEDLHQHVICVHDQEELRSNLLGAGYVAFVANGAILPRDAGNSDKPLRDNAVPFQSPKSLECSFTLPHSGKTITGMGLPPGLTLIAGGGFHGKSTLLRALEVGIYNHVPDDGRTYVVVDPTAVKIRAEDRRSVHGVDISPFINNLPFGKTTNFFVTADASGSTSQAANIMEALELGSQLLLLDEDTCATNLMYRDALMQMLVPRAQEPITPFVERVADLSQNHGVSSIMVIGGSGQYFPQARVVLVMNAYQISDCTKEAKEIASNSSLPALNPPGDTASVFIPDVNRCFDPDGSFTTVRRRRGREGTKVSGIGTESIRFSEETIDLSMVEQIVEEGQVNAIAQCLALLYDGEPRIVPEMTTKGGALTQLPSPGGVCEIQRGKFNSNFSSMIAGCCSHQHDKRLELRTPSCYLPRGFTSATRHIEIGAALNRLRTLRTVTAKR
The experiment in a line: fluorescence polarization. Particulars: FP: 20 mM Tris-HCl pH 7.5, 150 mM NaCl, 5% glycerol, 1 mM MgCl2, 2 mM ADP or AMP-PNP, 1 nM 3'-fluoresceinated RNA (heated to 99 C, slow cooled), 25 C. In general terms: Fluorescence polarisation rises when a labelled molecule tumbles more slowly, as on binding a larger partner.
In general, Kd refers to the constant that tells how readily two partners part at equilibrium. Take GC-rich RNA 15 mer: the Kd was 27.9 nM.

40 mer GC-rich A6 showed a Kd of 1.3 nM.

For the substance GC-rich RNA 14 mer, the dissociation constant Kd was found to be 236 nM.

GC-rich RNA 18 mer came in with a Kd of 5.7 nM.

For the substance GC-rich RNA 16 mer, the dissociation constant Kd stood at 8.2 nM.
